These results are taken from the RNAGym collection of RNA variant scans (doi:10.7554/elife.80360).

First the molecules themselves.
B1: HDV Ribozyme (parent)
chain: GGCCGGCAUGGUCCCAGCCUCCUCGCUGGCGCCGGCUGGGCAACAUUCCGAGGGGACCGUCCCCUCGGUAAUGGCGAAUGGGACCCA

This data set covers variants of B1. In words: self-cleavage, relative activity (ratio to wild type); higher = more cleavage; co-transcriptional.
As to G1C U47C, the self-cleavage stood at 0.399.

On to G1C C15A, for which the self-cleavage turned out to be 0. In the case of G1C C15G, the self-cleavage came out at 0.166.

Take G1C G50U: the self-cleavage turned out to be 0.231. G1C G50C: the self-cleavage is 0.342. Regarding G1C G50A, the self-cleavage was 0.277. In the case of G1U C26A it was 0.288. As for G1C A45U, the self-cleavage turned out to be 0. G1C A45G: the self-cleavage was determined as 0.192. Next, G1U C48A: 0.465; G1C A16U: 0.111; G1C A16C: 0.128.

Consider G1U G2A, for which the self-cleavage worked out at 0.262. Next, G1U C44G: 0.271. In the case of G1U C44A it was 0.479; in that of G1A G67C, 0.

Consider G1A G67A, for which the self-cleavage was found to be 0.0665.

In the case of G1U C19A, the self-cleavage turned out to be 0.383.

For G1U C19G, the self-cleavage was found to be 0.348.

In the case of G1C G40U, the self-cleavage worked out at 0.189. For the variant G1C G40A, the self-cleavage amounted to 0.111. Next, G1A G35U: 0.158. As for G1A G35A, the self-cleavage was 0.101. Next, G1A G52A: 0.138; G1C C41U: 0.229. Next, G1C C41A: 0.123; G1A U12A: 0.0415; G1C C58A: 0.297. In the case of G1C C58G it was 0.199; in that of G1A C19U, 0.101; in that of G1A C19A, 0.0744. For G1A G6C, the self-cleavage came to 0.151.

As for G1A G6U, the self-cleavage is 0. As for G1C U60C, the self-cleavage stood at 0.0639.

With G1U A83C, the self-cleavage was 0.259. For G1U A83G, the self-cleavage came out at 0.461.

For G1C C61G, the self-cleavage came out at 0.0504. Next, G1C C61U: 0.185. In the case of G1U C22A, the self-cleavage is 0.441. Next, G1A G50A: 0; G1U G29U: 0.308. In the case of G1U G29C it was 0.292; in that of G1C G55A, 0.106; in that of G1A C26U, 0. Consider G1A C26G, for which the self-cleavage came out at 0. In the case of G1A C26A it was 0.119; in that of G1U C32A, 0.289. In the case of G1A C61U it was 0.26; in that of G1A C61G, 0.0831.

For G1A C61A, the self-cleavage was 0.145. For the variant G1C C66A, the self-cleavage was 0.19.

As for G1C C66G, the self-cleavage was determined as 0.128. In the case of G1C C66U it was 0.208; in that of G1A G39C, 0.

Take G1A C66U: the self-cleavage was 0.353.

As for G1U G35C, the self-cleavage came to 0.191. In the case of G1U A77C it was 0.494; in that of G1U A77G, 0.406.

For G1A U65C, the self-cleavage was determined as 0.0875. For the variant G1C G59U, the self-cleavage was 0.0437. In the case of G1C G59A it was 0.19; in that of G1U C63G, 0.453; in that of G1U C63U, 0.535. As for G1U C63A, the self-cleavage is 0.391. For G1C G31C, the self-cleavage came to 0. On to G1C A77C, for which the self-cleavage is 0.

As to G1C A77G, the self-cleavage turned out to be 0. On to G1C A42C, for which the self-cleavage was 0.0639. In the case of G1U G17U it was 0.309. In the case of G1C G52U it was 0.219. Regarding G1C G52A, the self-cleavage amounted to 0.166. In the case of G1C A87U it was 0.104. Consider G1U A56G, for which the self-cleavage turned out to be 0.521. Next, G1U A56U: 0.394; G1A C75U: 0.0639. With G1U A51U, the self-cleavage worked out at 0.462. G1C G76U: the self-cleavage was determined as 0.115. Next, G1C U72G: 0; G1A C62G: 0.0519; G1A C62A: 0.0791. Turning to G1A C21U, the self-cleavage was found to be 0.121. Take G1A C21A: the self-cleavage amounted to 0.104.

Consider G1A U37A, for which the self-cleavage was 0.161. In the case of G1C U79C it was 0.177; in that of G1C U79A, 0.237; in that of G1A G74C, 0. Regarding G1A G74U, the self-cleavage came to 0.0563. Regarding G1C U69G, the self-cleavage stood at 0.208. For the variant G1C C22G, the self-cleavage was 0. Consider G1C C22A, for which the self-cleavage amounted to 0.203. As to G1U G81C, the self-cleavage stood at 0.326. Next, G1U G81U: 0.41; G1C U12C: 0.175; G1C C36A: 0.151.

On to G1A C33U, for which the self-cleavage was 0.0594.

As to G1U G10A, the self-cleavage turned out to be 0.387. In the case of G1U G6U, the self-cleavage amounted to 0.429. As for G1U A70C, the self-cleavage came out at 0.302. Regarding G1U A70G, the self-cleavage came out at 0.536. Turning to G1U U9A, the self-cleavage is 0.389. In the case of G1U U9C it was 0.554; in that of G1U U9G, 0.399. As for G1U G11U, the self-cleavage was determined as 0.439. Turning to G1U G11A, the self-cleavage came out at 0.364. With G1C A78G, the self-cleavage is 0.0573. Next, G1A C30U: 0.0554; G1A C30G: 0. As to G1A C85U, the self-cleavage worked out at 0.0755. Next, G1A C85G: 0.101; G1U G31U: 0.385; G1U G31C: 0.356. For the variant G1A G55C, the self-cleavage came to 0.115. Regarding G1A G55A, the self-cleavage stood at 0.0519. In the case of G1U C49U it was 0.391; in that of G1U C64U, 0.451. Regarding G1U A87C, the self-cleavage worked out at 0.408. As for G1U A87G, the self-cleavage stood at 0.332. In the case of G1U C30G it was 0.282; in that of G1U C30U, 0.35. G1A U69C: the self-cleavage stood at 0.104.

Turning to G1A U69G, the self-cleavage was 0.369. Next, G1A C63A: 0.289; G1C U23A: 0.128. With G1C A71C, the self-cleavage was found to be 0.256. Next, G1C A71G: 0; G1A C48G: 0.199. In the case of G1A C48U it was 0; in that of G1C G10U, 0.143. Next, G1U G55A: 0.208; G1U G55U: 0.455.

As for G1C G53U, the self-cleavage amounted to 0.213. Next, G1C G53C: 0.332; G1C U27A: 0.185.

For the variant G1C U27G, the self-cleavage was found to be 0.277. In the case of G1C C63U it was 0.0898; in that of G1U G38C, 0.369. Next, G1U G38A: 0.422.

Regarding G1U C85A, the self-cleavage came to 0.361. In the case of G1U C85U it was 0.321. Take G1U G53A: the self-cleavage came out at 0.32. As to G1U G53C, the self-cleavage stood at 0.283. G1U G53U: the self-cleavage came out at 0.355. With G1A C22U, the self-cleavage came to 0.0779. In the case of G1A C22A it was 0.0831; in that of G1A G2U, 0.852. In the case of G1C G29C it was 0.0665.

On to G1C A70C, for which the self-cleavage stood at 0.185. In the case of G1U C18G it was 0.151; in that of G1C G28A, 0.0405; in that of G1A C64U, 0.101. Take G1A C64A: the self-cleavage is 0.131. Turning to G1C G54C, the self-cleavage came to 0.26. Consider G1C G54U, for which the self-cleavage was found to be 0.396. With G1A U79C, the self-cleavage amounted to 0.119. Regarding G1A U79A, the self-cleavage was found to be 0.208. In the case of G1A U23C it was 0; in that of G1C C84A, 0.166; in that of G1C C84U, 0.128. Next, G1A G17A: 0.0811; G1C G2A: 0.138.

Turning to G1C G2U, the self-cleavage worked out at 0.256.

G1A G11U: the self-cleavage is 0.0992. In the case of G1A G11A, the self-cleavage stood at 0.0779. In the case of G1A U20G it was 0; in that of G1A G31U, 0. With G1A G31A, the self-cleavage turned out to be 0.131. Turning to G1A G31C, the self-cleavage worked out at 0.0292.
